From PMC8866402, “Fortilin interacts with TGF-β1 and prevents TGF-β receptor activation” (Communications Biology, 2022) come the findings set out here.

Assay [1] addresses T1, recombinant human Flag-tagged p53 (human, UniProt P04637 1-393).
T1 construct: p53, human; Positive control of the co-IP; also called rh-p53; source: bought: OriGene (Catalog #: TP300003)
The experiment in a line: co-IP; in vitro mixture of recombinant Flag-fortilin, TGF-β1, Flag-p53 and His6-NQO2 in Buffer A (10 mM Tris pH 7.4, 100 mM NaCl, 0.01% NP-40); rabbit anti-fortilin mAb or rabbit IgG, 2 h room temperature; anti-rabbit IgG Dynabeads; four washes in Buffer B (0.3% NP-40); western blot. Particulars: both partners purified.

Assay [2] has as its target T2, recombinant human latency-associated-peptide (LAP)-TGF-β1 protein (human, UniProt P01137 30-278).
T2 construct: TGF-β1 precursor, human; 'latency-associated-peptide (LAP)-TGF-β1'; As far as I recall, R&D Systems 246-LP is the LAP of TGF-β1 alone (about Leu30-Arg278 of the precursor), not the latent complex; also called LAP-TGF-β1 molecule; source: bought: R&D Systems (Catalog #: 246-LP-025/CF)
The experiment in a line: BLI; BLItz; biotinylated rh-fortilin immobilised on streptavidin biosensors (30 μg/mL, PBS); various concentrations of analyte, 180 s association, 180 s dissociation in PBS. Particulars: both partners purified. For orientation: Biolayer interferometry detects binding as a change in optical thickness at a sensor tip.

T2 sequence (P01137 30-278): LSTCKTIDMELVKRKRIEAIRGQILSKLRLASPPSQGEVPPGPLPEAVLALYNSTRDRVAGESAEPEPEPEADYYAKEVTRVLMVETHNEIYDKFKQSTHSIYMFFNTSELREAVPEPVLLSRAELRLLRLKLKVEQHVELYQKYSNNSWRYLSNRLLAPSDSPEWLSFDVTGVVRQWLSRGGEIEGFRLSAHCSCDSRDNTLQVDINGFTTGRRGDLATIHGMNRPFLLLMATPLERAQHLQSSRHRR
T1 sequence (P04637 whole entry): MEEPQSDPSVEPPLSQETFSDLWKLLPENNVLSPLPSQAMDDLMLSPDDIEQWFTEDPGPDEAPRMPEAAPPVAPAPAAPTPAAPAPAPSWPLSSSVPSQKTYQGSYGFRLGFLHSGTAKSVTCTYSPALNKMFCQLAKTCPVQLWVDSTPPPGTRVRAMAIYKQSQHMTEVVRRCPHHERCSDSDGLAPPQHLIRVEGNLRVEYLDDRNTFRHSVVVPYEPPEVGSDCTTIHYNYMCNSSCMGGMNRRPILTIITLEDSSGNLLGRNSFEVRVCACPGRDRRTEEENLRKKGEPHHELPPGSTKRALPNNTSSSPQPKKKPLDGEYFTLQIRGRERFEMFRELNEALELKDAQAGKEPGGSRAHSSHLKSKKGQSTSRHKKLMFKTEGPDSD

B1: recombinant human Flag-tagged fortilin (natural protein)
chain: MIIYRDLISHDEMFSDIYKIREIADGLCLEVEGKMVSRTEGNIDDSLIGGNASAEGPEGEGTESTVITGVDIVMNHHLQETSFTKEAYKKYIKDYMKSIKGKLEEQRPERVKPFMTGAAEQIKHILANFKNYQFFIGENMNPDGMVALLDYREDGVTPYMIFFKDGLEMEKC
notes: fortilin, human; the abstract calls fortilin a 172-amino acid protein; also called rh-fortilin; source: bought: OriGene (Catalog #: TP301664)
On to B1, for which the binding result in assay [1] is “binds”.

B2: biotinylated rh-fortilin (natural protein, human)
chain: MIIYRDLISHDEMFSDIYKIREIADGLCLEVEGKMVSRTEGNIDDSLIGGNASAEGPEGEGTESTVITGVDIVMNHHLQETSFTKEAYKKYIKDYMKSIKGKLEEQRPERVKPFMTGAAEQIKHILANFKNYQFFIGENMNPDGMVALLDYREDGVTPYMIFFKDGLEMEKC
modifications: biotin (NHS-PEG4-biotin)
notes: fortilin, human; The BLI methods say only 'rh-fortilin'; also called biotinylated fortilin; source: rh-fortilin biotinylated with NHS-PEG4-biotin and desalted
As usually defined, the Kd is the equilibrium constant for the complex coming apart. Turning to B2, the equilibrium dissociation constant (Kd) in assay [2] was 930 nM.
